Earlier results on one substance are cited in article PMC5593754.

The target in this data set is Glu97 (UniProt position 97, WARMAEWLCTC). Nature of the data set: UV-vis. As to conditions: unphotolyzed (dark) state, protonated Schiff base.

Consider “Anion channelrhodopsin 1 (GtACR1) S97E mutant (Guillardia theta; S97E)”, for which the pKa entry is “∼8”.
